T1: GPAA1, subunit of the human GPI transamidase (GPI-T) (human, UniProt O43292-1 2-621)
T1 construct: GPAA1, human, Genbank ID NP_003792.1; The 2×Flag tag follows the TGP tag; also called Gaa1p (yeast name); source: Expi293 cells co-transfected with five plasmids carrying all subunits; purified as the GPI-T complex (Strep-Tactin, Ni-NTA, gel filtration) in digitonin
T1 sequence: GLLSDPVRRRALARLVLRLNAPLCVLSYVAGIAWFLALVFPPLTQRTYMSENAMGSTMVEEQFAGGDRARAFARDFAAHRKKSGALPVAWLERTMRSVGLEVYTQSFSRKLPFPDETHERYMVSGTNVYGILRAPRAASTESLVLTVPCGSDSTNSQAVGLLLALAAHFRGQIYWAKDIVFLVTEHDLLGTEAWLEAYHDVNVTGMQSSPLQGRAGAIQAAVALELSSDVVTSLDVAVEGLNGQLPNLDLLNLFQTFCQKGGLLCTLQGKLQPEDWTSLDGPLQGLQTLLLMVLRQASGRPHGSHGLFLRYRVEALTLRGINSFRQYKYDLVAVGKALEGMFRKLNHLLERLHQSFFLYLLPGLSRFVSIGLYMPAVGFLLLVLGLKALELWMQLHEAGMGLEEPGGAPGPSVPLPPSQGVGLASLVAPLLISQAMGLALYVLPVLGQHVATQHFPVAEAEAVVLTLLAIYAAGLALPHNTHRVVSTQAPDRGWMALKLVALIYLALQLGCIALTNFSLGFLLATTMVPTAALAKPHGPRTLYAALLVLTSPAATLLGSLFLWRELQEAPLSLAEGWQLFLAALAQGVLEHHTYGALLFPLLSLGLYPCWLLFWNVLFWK

B1: PIGK, subunit of the human GPI transamidase (GPI-T) (enzyme)
chain: SHIEDQAEQFFRSGHTNNWAVLVCTSRFWFNYRHVANTLSVYRSVKRLGIPDSHIVLMLADDMACNPRNPKPATVFSHKNMELNVYGDDVEVDYRSYEVTVENFLRVLTGRIPPSTPRSKRLLSDDRSNILIYMTGHGGNGFLKFQDSEEITNIELADAFEQMWQKRRYNELLFIIDTCQGASMYERFYSPNIMALASSQVGEDSLSHQPDPAIGVHLMDRYTFYVLEFLEEINPASQTNMNDLFQVCPKSLCVSTPGHRTDLFQRDPKNVLITDFFGSVRKVEITTETIKLQQDSEIMESSYKEDQMDEKLMEPLKYAEQLPVAQIIHQKPKLKDWHPPGGFILGLWALIIMVFFKTYGIKHMKFIF
modifications: disulfide bond from C92 to PIGT C182
notes: PIGK, human, Genbank ID NP_005473.1; The HA tag follows the TGP tag; also called Gpi8p (yeast name); source: Expi293 cells co-transfected with five plasmids carrying all subunits; purified as the GPI-T complex (Strep-Tactin, Ni-NTA, gel filtration) in digitonin
B2: PIGS, subunit of the human GPI transamidase (GPI-T) (natural protein)
chain: AAAGAAATHLEVARGKRAALFFAAVAIVLGLPLWWKTTETYRASLPYSQISGLNALQLRLMVPVTVVFTRESVPLDDQEKLPFTVVHEREIPLKYKMKIKCRFQKAYRRALDHEEEALSSGSVQEAEAMLDEPQEQAEGSLTVYVISEHSSLLPQDMMSYIGPKRTAVVRGIMHREAFNIIGRRIVQVAQAMSLTEDVLAAALADHLPEDKWSAEKRRPLKSSLGYEITFSLLNPDPKSHDVYWDIEGAVRRYVQPFLNALGAAGNFSVDSQILYYAMLGVNPRFDSASSSYYLDMHSLPHVINPVESRLGSSAASLYPVLNFLLYVPELAHSPLYIQDKDGAPVATNAFHSPRWGGIMVYNVDSKTYNASVLPVRVEVDMVRVMEVFLAQLRLLFGIAQPQLPPKCLLSGPTSEGLMTWELDRLLWARSVENLATATTTLTSLAQLLGKISNIVIKDDVASEVYKAVAAVQKSAEELASGHLASAFVASQEAVTSSELAFFDPSLLHLLYFPDDQKFAIYIPLFLPMAVPILLSLVKIFLETRKSWRKPEKTD
notes: PIGS, human, Genbank ID NP_149975.1; The Myc tag follows the TGP tag; also called Gpi17p (yeast name); source: Expi293 cells co-transfected with five plasmids carrying all subunits; purified as the GPI-T complex (Strep-Tactin, Ni-NTA, gel filtration) in digitonin
B3: PIGT, subunit of the human GPI transamidase (GPI-T) (natural protein)
chain: LAEPPRDSLREELVITPLPSGDVAATFQFRTRWDSELQREGVSHYRLFPKALGQLISKYSLRELHLSFTQGFWRTRYWGPPFLQAPSGAELWVWFQDTVTDVDKSWKELSNVLSGIFCASLNFIDSTNTVTPTASFKPLGLANDTDHYFLRYAVLPREVVCTENLTPWKKLLPCSSKAGLSVLLKADRLFHTSYHSQAVHIRPVCRNARCTSISWELRQTLSVVFDAFITGQGKKDWSLFRMFSRTLTEPCPLASESRVYVDITTYNQDNETLEVHPPPTTTYQDVILGTRKTYAIYDLLDTAMINNSRNLNIQLKWKRPPENEAPPVPFLHAQRYVSGYGLQKGELSTLLYNTHPYRAFPVLLLDTVPWYLRLYVHTLTITSKGKENKPSYIHYQPAQDRLQPHLLEMLIQLPANSVTKVSIQFERALLKWTEYTPDPNHGFYVSPSVLSALVPSMVAAKPVDWEESPLFNSLFPVSDGSNYFVRLYTEPLLVNLPTPDFSMPYNVICLTCTVVAVCYGSFYNLLTRTFHIEEPRTGGLAKRLANLIRRARGVPPL
modifications: disulfide bond from C182 to PIGK C92
notes: PIGT, human, Genbank ID NP_057021.2; also called Gpi16p (yeast name); source: Expi293 cells co-transfected with five plasmids carrying all subunits; purified as the GPI-T complex (Strep-Tactin, Ni-NTA, gel filtration) in digitonin; not shown: 9×His, C-terminal, kept
B4: PIGU, subunit of the human GPI transamidase (GPI-T) (natural protein)
chain: AAPLVLVLVVAVTVRAALFRSSLAEFISERVEVVSPLSSWKRVVEGLSLLDLGVSPYSGAVFHETPLIIYLFHFLIDYAELVFMITDALTAIALYFAIQDFNKVVFKKQKLLLELDQYAPDVAELIRTPMEMRYIPLKVALFYLLNPYTILSCVAKSTCAINNTLIAFFILTTIKGSAFLSAIFLALATYQSLYPLTLFVPGLLYLLQRQYIPVKMKSKAFWIFSWEYAMMYVGSLVVIICLSFFLLSSWDFIPAVYGFILSVPDLTPNIGLFWYFFAEMFEHFSLFFVCVFQINVFFYTIPLAIKLKEHPIFFMFIQIAVIAIFKSYPTVGDVALYMAFFPVWNHLYRFLRNIFVLTCIIIVCSLLFPVLWHLWIYAGSANSNFFYAITLTFNVGQILLISDYFYAFLRREYYLTHGLYLTAKDGTEAMLVLK
notes: PIGU, human, Genbank ID NP_536724.1; gene assembled from overlapping oligonucleotides; also called Gab1p (yeast name); source: Expi293 cells co-transfected with five plasmids carrying all subunits; purified as the GPI-T complex (Strep-Tactin, Ni-NTA, gel filtration) in digitonin; not shown: Strep, C-terminal, kept

Holding throughout (assay): cryo-EM structure; single-particle cryo-EM of the purified GPI-T complex in 0.1% digitonin, 150 mM NaCl, 20 mM Tris HCl pH 8.0; 2.53 Å; five subunits with 1:1 stoichiometry
What all share (settings): both partners purified

Test [1] has as its target B2.
Test [2] addresses B3.
The target in test [3] is B4.
Test [4] has as its target T1, GPAA1, subunit of the human GPI ….

The values that follow come from PMC9098846, “Molecular insights into biogenesis of glycosylphosphatidylinositol anchor proteins” (Nature Communications, 2022).

With B1, the binding result in test [1], in test [2] and in test [3] was “binds” throughout.
On to B2, for which the binding result in test [2] is “binds”.
B3: the binding result in test [4] is on record as “binds”.
On to B4, for which the binding result in test [4], in test [1] and in test [2] was “binds” each time.
